Test results published in paper PMC9576799, “Discovery of small molecule inhibitors that effectively disrupt IQGAP1-Cdc42 interaction in breast cancer cells” (Scientific Reports, 2022).

How the values were obtained:
[1] = molecular target: T1, GST-IQGAP1-C (Homo sapiens, UniProt P46940); assay: GST pull-down assay and Western blotting; format: binding; settings: 2 h at 4 °C, Western blot with anti-Cdc42
T1 construct: the C-terminal half of IQGAP1 (comprising amino acids 864–1657) containing a GST-tag; made in house; host or cells: Escherichia coli BL-21
T1 sequence (P46940 864-1657): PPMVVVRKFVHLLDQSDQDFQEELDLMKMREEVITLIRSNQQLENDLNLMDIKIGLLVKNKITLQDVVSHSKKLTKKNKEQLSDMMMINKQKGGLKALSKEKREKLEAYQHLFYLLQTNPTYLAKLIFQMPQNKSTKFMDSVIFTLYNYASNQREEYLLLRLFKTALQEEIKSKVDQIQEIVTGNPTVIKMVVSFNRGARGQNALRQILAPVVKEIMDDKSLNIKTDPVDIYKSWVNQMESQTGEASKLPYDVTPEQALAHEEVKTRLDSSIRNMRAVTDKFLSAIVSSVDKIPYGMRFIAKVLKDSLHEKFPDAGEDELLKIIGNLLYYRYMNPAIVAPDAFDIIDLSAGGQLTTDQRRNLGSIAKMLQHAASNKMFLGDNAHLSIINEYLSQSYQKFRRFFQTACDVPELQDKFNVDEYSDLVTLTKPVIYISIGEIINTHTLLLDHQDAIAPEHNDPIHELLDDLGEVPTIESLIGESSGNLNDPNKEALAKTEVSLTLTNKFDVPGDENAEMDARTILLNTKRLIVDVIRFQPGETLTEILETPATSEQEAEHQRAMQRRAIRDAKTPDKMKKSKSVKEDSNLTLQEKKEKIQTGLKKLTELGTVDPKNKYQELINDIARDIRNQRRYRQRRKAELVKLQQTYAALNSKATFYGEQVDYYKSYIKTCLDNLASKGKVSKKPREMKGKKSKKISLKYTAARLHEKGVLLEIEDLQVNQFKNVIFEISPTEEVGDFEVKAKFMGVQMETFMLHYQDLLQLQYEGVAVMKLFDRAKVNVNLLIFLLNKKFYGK
Description: (a) Schematic representation of IQGAP1 protein. The C-terminal half of IQGAP1 (amino acids 864–1657) was used in the HTRF assay. (b) GST pull-down assay. GST-IQGAP1-C was incubated with His-tagged Cdc42-N17 or Cdc42-Q61L for 2 h at 4 °C. GST alone was incubated with Cdc42-Q61L as the negative control. Complexes were isolated using glutathione-Sepharose and resolved by SDS-PAGE. The gel was cut at 70 kDa. The upper part of the gel was stained with Coomassie blue. The lower portion of the gel was transferred to PVDF membrane and probed with anti-Cdc42 antibodies. (c) Scheme of the HTRF assay in 384–well format showing fluorescent labeled GST-IQGAP1-C (donor Europium cryptate, K) and His-Cdc42-Q61L (acceptor XL665). (d) Time resolved fluorescence was detected at 615 and 665 nm on the Biotek Synergy using recombinant proteins. The Y-axis represents the ratio of acceptor to donor emission wavelength multiplied by 10,000. The means and standard errors of two replicates are shown. The green bar (Buffer) indicates samples without His-Cdc42. […] No single label is printed for the pair, so the substance label joins the two printed names.

[2] = molecular target: C-terminal half of IQGAP1 (amino acids 864–1657); parameters: method as in PMID 17984089; settings: scintillation proximity assay; read-out: equilibrium dissociation constant (Kd) of Cdc42-Q61L binding to IQGAP1 fragment; cited from earlier work

Substance	binding to IQGAP1 in GST pulldown [1]	Kd [2] [nM]
Cdc42-N17: dominant negative Cdc42 mutant, negative control	no detectable binding	–
Cdc42-Q61L: constitutively active Cdc42 mutant construct that binds IQGAP1 with high affinity	binds to the C-terminal region of IQGAP1	24 ± 4
